Laboratory results taken from patent US20260258115A1 (MAPP BIOPHARMACEUTICAL, published 2026).
Numbering of substitutions follows the chain as printed.

B1: ADI-41286 (antibody, V domains shown)
VH: QVQLVQSGAEVKKPGASVKVSCKASGYTFISYGISWVRQAPGQGPEWMGWISTHNGNTNYAQKLQGRVTMTTDTSTSTAYMELRSLRSDDTAVYYCARDERSIAVEVYLGSTFDIWGQGTMVTVSS
VL: DIQVTQSPSSVSASVGDRVTITCRASQGISSWLAWYQQKPGKAPKLLIYAASTLQSGVPSRFSGSGSGTDFTLTISRLQPEDFATYYCQQANIFGVTFGPGTKVDIK
B2: ADI-41294 (antibody, V domains shown)
VH: EVQLLESGGGLVQPGGSLRLSCAASGFTFSAYEMNWVRQAPGKGLEWVSYISSSGSNKHYADSVKGRFTISRDNAKNSLHLHMNSLRAEDTALYYCTRPHQEEWELLPNDAFDLWGQGTMVTVSS
VL: QSALTQPPSASGSPGQSVTISCTGTSTDVGAYTYVSWYQQHPGKAPKLIIYEVYKRPSGVPNRFFGSKSGNTASLTVSGLQAEDEADYYCSSYGGSNNFGLFGGGTKLIVL
B3: ADI-41302 (antibody, V domains shown)
VH: QVQLVESGGGVVQPGRSLRLSCAASGFTFSSYAMQWVRQAPGKGLEWVAVMTNDGDDKYYADSVRGRFTISRDNSKNTLYLQMNNLRPEDTAVYYCARDLFEWWELLGYCYAMDVWGQGTTVTVSS
VL: B2 VL with A3V, T27S, T33N, N62D, G94A, N98T, F99L, L101V, L108V, I109T
B4: ADI-41283 (antibody, V domains shown)
VH: QVTLKESGPTLVKPTQTLTLTCTFSGFSLSTFGVAVGWIRQPPGKALEWLALIYWDDDKRYSPSLKSRLTITKDISKNQVVLTMTNMDPVDTATYYCAHRLRSLTARGVFDIWGQGTTVTVSS
VL: DIRLTQSPSSLSASVGDRVTITCRASQSINNFLNWYQQRPGKAPTLLIYSASSLQSGVPSRFSGSGSGTDFTLTISSLQPEDFATYFCQQTDSFPWTFGQGTKVEIK
B5: ADI-41289 (antibody, V domains shown)
VH: EVQLVQSGAEVKKPGESLKISCKGSGYSFSSFWIGWVRQMPGKGLEWMGIIYPGDSDTRYSPSFQGQVTISADQSIRTAYLQWNSLKASDTGLYYCAKGGLGDVEMATIAVWGQGTLVTVSS
VL: QSVLIQPASVSGSPGQSITIPCTGTSSDVGSYNLVSWYQHHPGKAPKLIISEGSKRPLGVSNRFSGSKSGNTASLTISGLQAEDEADYYCSSYVRSRTFNYVFGTGTKLTVL
B6: ADI-41284 (antibody, V domains shown)
VH: QVQLVQSGGGLVKPGGSLRLSCAASGFTFSNAWMSWVRQAPGKGLEWVGRIKSEVDGGTADYAANVKGRLTISRDDSKNMMYLQMNSLKTEDTAVYYCTTDPGVGWIFGEVKLFRTDPEYWGQGTLVTVSS
VL: QSVLTQPPSVSAAPGQKVTISCSGSSSNIGNHYVSWYQQLPGTSPKLLIYDNNKRPSGIPDRFSGSKSGTSATLGITGLQPGDEADYYCGTWDSSLSAVRVFGGGTKVTVL
B7: ADI-41292 (antibody, V domains shown)
VH: EVQLLESGGGVVQPGRSLRLSCAASGFSFSSYGIHWVRQAPGKGLECVALMSYDGSEKYYADSVKGRFTISRDNSKNTLYLHMNSLRREDTAVYYCAKGSHLRWSHLDYYFHLWGRGTLVTVSS
VL: DIVMTQSPSTLSASVGDRVTITCRASQSLSTWLAWYQQKPGKAPKLLISDASNLESGVPSRFSGRGSGTEFTLTISGLQPDDFATYYCQQERTFGQGTKVDIK
B8: ADI-41288 (antibody, V domains shown)
VH: EVQLVESGGGLVQPGGSLRLSCAASGFTFSSYAMSWVRQAAGKGLEWVSAISGSGDDTFYADSVKDRFIISRDSSKRKVYLQMNSLRVEDTAVYYCAKTDIMVTFGGVVVDAYYFDHWGQGTLVTVSS
VL: ETTLTQSPGTLSLSPGERATLSCRASQFVFRSYLAWYQQRPGQPPRLLIYGASSRATGIPDRFSGRGSGTEFTLTISRLEPEDFAMYYCQHYDSSPPGTFGGGTKVEIK
B9: ADI-41285 (antibody, V domains shown)
VH: QVQLVQSGAEVKKPGSSVKVSCKASGGTFSYYAISWVRQAPGQGLEWMGGIIPILGTVKNAQKFQGRVTITADKITSIAYMELSSLRHEDTAVYYCARDYYDSSGYYYNGYGMDVWGQGTTVTVSS
VL: QSVLIQPPSASGTPGQRVTISCSGSSSNIGSNYVYWYQQLPGTAPKLLIYRNDQRPSGVPDRFSGSKSGTSASLAISGLRSGDEADYYCAAWDDSLGGPIWVFGGGTKLTVL
B10: ADI-41299 (antibody, V domains shown)
VH: EVQLVESGGGLVHPGRSLRLSCGASGFTFRSFAMHWVRQAPGKGLEWVAVISYDGSDEYYADSVKGRFTISRDNSRNTLFLQMNRLRPEDTAIYYCARAYCSTSNCPVLDYWGQGTLVTVSS
VL: QSVLIQPASVSGSPGQSITISCTGTSSDVGGYSLVSWYQQHPGKAPKLIIFEGNKRPAGVSDRFSGSKYGDTASLTISGLQAEDEADYYCCSYAGGHSVFGGGTKVTVL
B11: ADI-41296 (antibody, V domains shown)
VH: EVQLVESGVEVKKPGESLKISCRGSGYTFYNYWIAWVRQKPGKGLEYMGTIYLDDSETIYSPSFQGEVTISADKSINTAYLQWNSLKASDTANYYCARQMDFYFDVWGRGTLVTVSS
VL: SYELMQPPSVSVSPGQTARITCSGDPLPRESAYWYQQKPGQAPVVIIFNDIERPLGIPERFSGSRSGTTVTLTISGAQAEDEADYYCQSADSRKTFVFGTGTKLTVL
B12: ADI-41293 (antibody, V domains shown)
VH: QVQLQQSGPGLAKPSQTLSLTCTVSGGPISGVDYYWSWIRQPPGKGLEWIGYIYYSGSTYYNPSLKSRVTISVDTSKKQFSLKMSSVTAADTAVYYCARDVGATPYYYYGMDVWGQGTTVTVSS
VL: DIVLTQSPDTLSLSPGERATLSCRASQSVRSNYLAWYQHKPGQAPRLLIYGASSRVAGIPDRFSGSGSGTDFTLTISRLEPEDFAVYYCQQYGSSPPSVTFGGGTKVEIK
B13: ADI-41291 (antibody, V domains shown)
VH: QVQLQQWGAGLLKPSETLSLTCVVYGESFSDSGYYWTWIRQPPEKGLEWIGEINHGGSTSYNPSLKSRVTISVDTSENQFSLKVTSVTGADTAVYYCARLRLGCSGGSCYSRFDYWGQGTLVTVSS
VL: DIQLTQSPSSLSASVGDRVTITCRASQSINSYLNWYQQKPGKAPVLLIHAASSLQGGVPSRFSGSGSGTDFTLTISSLQPEDFATYYCQQSYNTRWTFGHGTKVDIK
B14: ADI-41297 (antibody, V domains shown)
VH: QVQLVQSGAEVKKPGSSVKVSCKASGGTFSTDAISWVRQAPGQGLEWMGGIIPLFGTANYAQKFQGRVTITADESTSTAYMELNSLRSVDTAVYYCGRTGAFDGEVVVRPHLDLWGQGTLVTVSS
VL: QPVLTQPASVSGSPGQSITISCTGTSSDVGGYDYVSWYQHHPGKAPKLMIYEVSNRPSGVSNRFSGSKSGNTASLTISGLQADDEAAYYCSSYTRSNTLLFGGGTKLTVL
B15: ADI-41287 (antibody, V domains shown)
VH: EVQLVESGGGLVQPGRSLRLSCAASGFTFDDYAMHWVRQAPGKGLEWVSSISWHSADIGYAASVEGRFTISRDNAKNSLFLQMNSLRPEDTALYYCAKEIVSTSWYSGYFQDWGQGTLVTVSS
VL: QPVLTQPRSVSGSPGQSVTISCTGTSSDVGDYNYVSWYQQHPGKAPKLMIYDVSKRPSGVPDRFSGSKSGNTASLTISGLQGEDEADYYCCSYAGRHTFVFGTATKVTVL

These binders were tested against RSV F on RSV-A2 virus (Respiratory syncytial virus (RSV-A2)) (assay: cell-based or functional assay).

Binder	Neutralization IC50 (RSV subtype A)
B1	> 25 µg/mL
B2	0.0805 µg/mL
B3	0.006 µg/mL
B4	> 25 µg/mL
B5	> 25 µg/mL
B6	> 25 µg/mL
B7	> 25 µg/mL
B8	> 25 µg/mL
B9	> 25 µg/mL
B10	> 25 µg/mL
B11	> 25 µg/mL
B12	0.159 µg/mL
B13	> 25 µg/mL
B14	> 25 µg/mL
B15	5.85 µg/mL
